The text below walks through data of article PMC7831708.

By EC50 is commonly meant the concentration that produces a half-maximal response.

The assay concerns the target recombinant human PD-1 (human) (UniProt Q15116). As to the kind of experiment: ELISA. (In general: An ELISA detects its analyte on a solid surface through an enzyme-linked reagent.)
Chain of UniProt Q15116 (Q15116 25-170): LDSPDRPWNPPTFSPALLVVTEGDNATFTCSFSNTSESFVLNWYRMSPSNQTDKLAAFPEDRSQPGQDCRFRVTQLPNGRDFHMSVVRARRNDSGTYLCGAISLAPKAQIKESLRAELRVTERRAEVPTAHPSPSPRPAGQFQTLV

Take “Recombinant cynomolgus monkey PD-L1.mFc (Fc fusion)”: the EC50 is 2.88 nM.
